Values of other authors, collected in article PMC10770464.
pKd: −log10 of the molar value.

What was measured:
[1] = target: Apolipoprotein A (Homo sapiens) (UniProt P08519)
[2] = target: Plasminogen kringle 4 (Homo sapiens) (UniProt P00747)
[3] = target: Plasminogen (Homo sapiens) (UniProt P00747)
[4] = target: High mobility group box-1 (Homo sapiens) (UniProt P09429)
[5] = target: Hepatocyte growth factor (Homo sapiens) (UniProt P14210); experiment: ELISA
[6] = target: Tissue plasminogen activator (Homo sapiens) (UniProt P00750); experiment: ELISA
Sequence of UniProt P00750 (P00750 36-562): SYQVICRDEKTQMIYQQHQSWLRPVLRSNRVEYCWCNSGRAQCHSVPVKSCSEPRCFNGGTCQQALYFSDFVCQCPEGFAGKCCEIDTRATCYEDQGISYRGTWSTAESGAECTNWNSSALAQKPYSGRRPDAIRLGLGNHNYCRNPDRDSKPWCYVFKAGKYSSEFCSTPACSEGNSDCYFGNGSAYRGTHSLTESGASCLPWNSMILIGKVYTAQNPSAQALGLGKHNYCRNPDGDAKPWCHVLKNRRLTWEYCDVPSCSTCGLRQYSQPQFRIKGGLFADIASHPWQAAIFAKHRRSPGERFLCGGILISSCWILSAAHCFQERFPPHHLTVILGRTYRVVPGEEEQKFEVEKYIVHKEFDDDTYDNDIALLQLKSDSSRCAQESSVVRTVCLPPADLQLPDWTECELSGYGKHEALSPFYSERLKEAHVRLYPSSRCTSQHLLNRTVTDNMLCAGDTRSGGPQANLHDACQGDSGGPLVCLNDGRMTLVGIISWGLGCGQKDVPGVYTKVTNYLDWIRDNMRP

Sequence of UniProt P14210 (P14210 495-728): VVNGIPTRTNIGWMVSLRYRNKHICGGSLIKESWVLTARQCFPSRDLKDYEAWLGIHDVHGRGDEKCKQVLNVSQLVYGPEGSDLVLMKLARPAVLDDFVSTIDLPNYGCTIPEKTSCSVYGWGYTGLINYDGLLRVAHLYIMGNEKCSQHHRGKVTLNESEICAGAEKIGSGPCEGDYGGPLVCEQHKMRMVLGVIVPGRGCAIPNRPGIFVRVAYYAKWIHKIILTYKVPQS
Sequence of UniProt P09429 (P09429 whole entry): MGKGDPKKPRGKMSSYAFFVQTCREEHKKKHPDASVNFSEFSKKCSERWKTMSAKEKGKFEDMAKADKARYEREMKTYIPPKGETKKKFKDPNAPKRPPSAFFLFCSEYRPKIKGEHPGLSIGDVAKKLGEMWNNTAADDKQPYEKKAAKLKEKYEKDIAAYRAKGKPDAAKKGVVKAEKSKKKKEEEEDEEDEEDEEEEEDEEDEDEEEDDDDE
Sequence of UniProt P08519 (P08519 20-2040): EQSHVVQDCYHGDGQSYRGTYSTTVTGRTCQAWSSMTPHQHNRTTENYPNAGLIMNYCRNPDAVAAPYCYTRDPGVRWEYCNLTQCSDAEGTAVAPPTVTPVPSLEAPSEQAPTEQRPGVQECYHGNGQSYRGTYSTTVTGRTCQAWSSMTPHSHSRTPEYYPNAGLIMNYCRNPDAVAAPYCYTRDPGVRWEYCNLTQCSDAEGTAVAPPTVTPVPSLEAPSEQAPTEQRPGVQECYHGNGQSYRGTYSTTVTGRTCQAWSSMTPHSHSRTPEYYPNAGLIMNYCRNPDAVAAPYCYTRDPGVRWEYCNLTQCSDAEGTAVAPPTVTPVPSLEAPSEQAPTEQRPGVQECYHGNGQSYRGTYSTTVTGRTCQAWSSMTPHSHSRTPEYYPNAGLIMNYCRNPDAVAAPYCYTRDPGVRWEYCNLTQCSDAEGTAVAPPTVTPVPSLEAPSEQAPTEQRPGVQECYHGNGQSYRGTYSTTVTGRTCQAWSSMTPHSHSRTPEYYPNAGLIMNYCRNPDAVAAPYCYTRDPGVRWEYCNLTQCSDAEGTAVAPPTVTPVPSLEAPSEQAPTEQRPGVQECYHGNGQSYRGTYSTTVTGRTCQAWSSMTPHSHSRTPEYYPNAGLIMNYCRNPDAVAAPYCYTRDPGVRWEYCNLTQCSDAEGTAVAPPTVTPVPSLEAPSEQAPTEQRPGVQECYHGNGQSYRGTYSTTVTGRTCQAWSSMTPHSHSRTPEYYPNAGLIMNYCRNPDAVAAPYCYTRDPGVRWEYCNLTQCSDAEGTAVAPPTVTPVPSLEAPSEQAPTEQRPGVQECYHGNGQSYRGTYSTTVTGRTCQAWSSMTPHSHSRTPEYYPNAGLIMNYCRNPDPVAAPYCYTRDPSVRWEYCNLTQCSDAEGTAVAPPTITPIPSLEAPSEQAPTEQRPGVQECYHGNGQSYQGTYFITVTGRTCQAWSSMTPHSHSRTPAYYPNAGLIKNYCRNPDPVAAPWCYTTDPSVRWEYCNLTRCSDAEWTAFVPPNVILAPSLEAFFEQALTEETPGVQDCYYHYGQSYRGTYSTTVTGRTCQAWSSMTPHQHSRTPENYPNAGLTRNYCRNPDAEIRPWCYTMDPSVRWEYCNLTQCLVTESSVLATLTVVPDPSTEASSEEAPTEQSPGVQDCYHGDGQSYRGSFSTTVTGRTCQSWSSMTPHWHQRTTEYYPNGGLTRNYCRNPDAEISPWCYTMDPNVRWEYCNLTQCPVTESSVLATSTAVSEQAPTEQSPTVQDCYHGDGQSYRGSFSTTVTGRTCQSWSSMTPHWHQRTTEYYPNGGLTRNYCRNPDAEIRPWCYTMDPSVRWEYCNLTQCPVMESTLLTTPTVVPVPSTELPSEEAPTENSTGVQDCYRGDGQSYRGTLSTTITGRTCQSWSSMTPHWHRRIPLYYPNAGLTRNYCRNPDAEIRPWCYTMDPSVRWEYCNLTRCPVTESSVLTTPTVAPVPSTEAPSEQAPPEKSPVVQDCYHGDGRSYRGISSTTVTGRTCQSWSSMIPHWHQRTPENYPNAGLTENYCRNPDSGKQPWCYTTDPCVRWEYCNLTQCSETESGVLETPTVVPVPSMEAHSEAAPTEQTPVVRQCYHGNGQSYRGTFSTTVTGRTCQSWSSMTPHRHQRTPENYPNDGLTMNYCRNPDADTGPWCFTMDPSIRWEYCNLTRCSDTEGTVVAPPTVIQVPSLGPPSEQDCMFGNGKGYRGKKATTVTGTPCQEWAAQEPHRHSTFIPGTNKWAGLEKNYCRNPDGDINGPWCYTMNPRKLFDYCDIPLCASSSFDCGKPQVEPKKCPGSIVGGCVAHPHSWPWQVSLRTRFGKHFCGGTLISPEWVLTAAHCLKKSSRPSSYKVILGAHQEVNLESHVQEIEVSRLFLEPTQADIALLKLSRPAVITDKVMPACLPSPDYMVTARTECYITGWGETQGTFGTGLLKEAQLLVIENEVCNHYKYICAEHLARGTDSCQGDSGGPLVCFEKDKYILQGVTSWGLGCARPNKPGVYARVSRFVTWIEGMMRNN

pKd [1]: 7.89
pKd [2]: 4.60
pKd [3]: 6.40
pKd [4]: 8.69
pKd [5]: 6.31
pKd [6]: 6.54
Substance: Tetranectin (from UniProt P05452)
